Measured values reported in patent US20210255174.

Test system: SNAPtide (FITC/DABCYL), List Biological Laboratories product #521

In the case of “BoNT/A complex (intact BoNT/A toxin complex, Metabiologics)”, the “Km of SNAPtide hydrolysis, bead-immobilized BoNT/A (bead based ALISSA)” value is reported as “bead based ALISSA: typical Km=0.2 µM” and the “Km of SNAPtide hydrolysis, free BoNT/A (non-bead based assay)” value is reported as “non-bead based assay: typical Km=0.7 µM”.
